The values that follow come from patent publication US20250122303A1 (HUMMINGBIRD BIOSCIENCE PTE, published 2025).

The Kd is the concentration at which binding is half-saturated. Read a high Kd as a looser complex. What is called EC50 is the concentration needed to bring the measured effect to its halfway point. Higher therefore signals lower potency in that assay. A word on the EC50 (read off the curve): it is the concentration giving half of the maximal effect. One may read the IC50 as the concentration that inhibits the measured activity by half.

Where two headings read alike, the source gives them in different places. Some results are limits rather than exact numbers.

In experiment [1] the target is T1, human HER3 polypeptide (human, UniProt P21860 20-643).
T1 construct: Recombinant antigen of the ELISAs; also called human HER3 (Sino Biological Inc.); human antigen HER3
The experiment in a line: BLI; after 7 days at 40 °C/80% RH.

The target of the next experiment is T2, hCD16a (human, UniProt P08637 17-208, limits assumed).
T2 construct: also called human CD16a
The experiment in a line: BLI; after 7 days at 40 °C/80% RH. In general terms: Biolayer interferometry detects binding as a change in optical thickness at a sensor tip.

Experiment [2] has as its target T3, human HER4 expressed on HEK293 cells (human, UniProt Q15303 26-1308).
T3 construct: whole, on cells; also called HEK293 HER4 overexpressing cells; cell-surface expressed HER4
The experiment in a line: flow cytometry on HEK293 HER4 overexpressing cells. The method, then: Also included was a commercial anti-HER4 antibody (Novus, Cat: FAB11311P). Unstained HEK293 cells were included in the analysis as negative controls.
HEK293 cells were incubated with 10 μg/ml of each antibody for 1 hour at 4° C. Flow cytometry was performed as described above. Cells were contacted with FITC-conjugated anti-FC antibody (Invitrogen, USA) at for 30 min at 4° C.

In another experiment the target is T4, human EGFR (human, UniProt P00533 25-645).
T4 construct: also called human HER1 (EGFR) (Sino Biological Inc.)
The experiment in a line: ELISA; plate coated with target polypeptide, absorbance 450 nm. The method, then: (§1) The antibodies were analysed for their ability to bind to human HER3 polypeptide as well as human HER1 (EGFR) and human HER2 (Sino Biological Inc., China).
(§2) ELISAs were carried out according to standard protocols. Plates were coated with 0.1 μg/ml of target polypeptide in phosphate-buffered saline (PBS) for 16 h at 4° C. After blocking for 1 h with 1% BSA in Tris buffer saline (TBS) at room temperature, the anti-HER3 antibody was serially diluted with the highest concentration being 10 μg/ml, and added to the plate. Post 1 h incubation at room temperature, plates were washed three times with TBS containing 0.05% Tween 20 (TBS-T) and were then incubated with a HRP-conjugated anti-His antibody (Life Technologies, Inc., USA) for 1 h at room temperature. After washing, plates were developed with colorimetric detection substrate 3,3′,5,5′-tetramethylbenzidine (Turbo-TMB; Pierce, USA) for 10 min. The reaction was stopped with 2M H₂SO₄, and OD was measured at 450 nm.
(In an ELISA, binding on a coated surface is turned into a signal by an enzyme label.)

The target in a further experiment is T5, human HER2 (human, UniProt P04626 23-652).
T5 construct: also called human HER2 (Sino Biological Inc.)
The experiment is described as above. As to the method: as §1, §2

In another experiment the target is T6, FcgRIIA (H167) (human, UniProt P12318).
T6 construct: recombinant; also called CD32A; hFcγRIIa167H
T6 sequence (receptor, looked up): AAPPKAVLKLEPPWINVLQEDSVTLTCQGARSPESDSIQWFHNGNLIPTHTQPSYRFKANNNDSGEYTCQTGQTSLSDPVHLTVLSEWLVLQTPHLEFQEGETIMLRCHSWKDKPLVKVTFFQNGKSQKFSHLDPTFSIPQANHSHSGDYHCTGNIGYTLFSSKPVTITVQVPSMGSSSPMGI
The experiment in a line: Bio-Layer Interferometry (determined as described in Example 7).

For a further experiment, the target named is T7, FcgRIIA (R167) (human, UniProt P12318).
T7 construct: recombinant; also called CD32A; hFcγRIIa167R
T7 sequence (receptor, looked up): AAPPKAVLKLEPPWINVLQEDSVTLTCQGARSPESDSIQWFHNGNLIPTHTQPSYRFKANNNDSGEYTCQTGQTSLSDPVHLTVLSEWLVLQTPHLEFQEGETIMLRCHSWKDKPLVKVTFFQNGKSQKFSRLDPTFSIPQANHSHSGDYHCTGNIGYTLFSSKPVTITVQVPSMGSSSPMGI
The description is as above.

Experiment [3] addresses T8, His-tagged FcγRIIIa (V158) (human, UniProt P08637 17-208).
T8 construct: not shown: His tag
Described as above.

The target of experiment [4] is T1, human HER3 polypeptide. The experiment in a line: ELISA; plate coated with target polypeptide, antibody serially diluted, absorbance 450 nm. The method, then:
as §1, §2

Experiment [5] addresses T1, human HER3 polypeptide. The experiment in a line: ELISA, plate coated with human HER3, antibody titrated, absorbance 450 nm, x axis Log([Ab]) (ug/ml).
The target in experiment [6] is T9, human HER3 expressed on cells (HEK293 HER3 O/E cells) (human, UniProt P21860 20-1342).
T9 construct: Also used here for HER3 on U2OS cells of the PathHunter kit and on cancer cell lines; also called HEK293 cells transfected with vector encoding human HER3; human HER3-expressing cells
The experiment in a line: flow cytometry on HEK293T HER3 O/E cells, 10 ug antibody as printed, FITC-conjugated anti-Fc secondary. As to the method:
(§3) The cells were washed with buffer (PBS with 2 mM EDTA and 0.5% BSA) and resuspended in FITC-conjugated anti-FC antibody (Invitrogen, USA) at 10 μg/ml for 20 min at 4° C. Cells were washed again and resuspended in 200 μL of FACS flow buffer (PBS with 5 mM EDTA) for flow cytometric analysis using MACSQuant 10 (Miltenyi Biotec, Germany). Unstained WT and transfected HEK293 cells were included in the analysis as negative controls. After acquisition, all raw data were analyzed using Flowlogic software. Cells were gated using forward and side scatter profile percentage of positive cells was determined for native and overexpressing cell populations.
On the technique in general: A flow cytometer gives signals particle by particle.

The target of experiment [7] is T9, human HER3 expressed on cells (HEK293 …). The description is as above. The method, then:
as §3
This is another data set of the same source.

The target in experiment [8] is T10, recombinant biotinylated human HER3 protein (human, UniProt P21860 20-643, limits assumed, biotinylated, site not stated).
T10 construct: also called HER3-biotin
The experiment in a line: plate ELISA dimerisation assay; human EGFR-His coated, constant HER3-biotin and NRG, antibody varied; blocked partner EGFR-His. The method, then:
Plate-based ELISA dimerisation assays were performed according to standard protocols. Plate was coated with 1 μg/ml human EGFR-His. […] Plates were then washed and incubated for 1 hour with secondary anti-avidin HRP antibody. […] The absorbance was read at 450 nm.

T3 sequence (Q15303 26-1308): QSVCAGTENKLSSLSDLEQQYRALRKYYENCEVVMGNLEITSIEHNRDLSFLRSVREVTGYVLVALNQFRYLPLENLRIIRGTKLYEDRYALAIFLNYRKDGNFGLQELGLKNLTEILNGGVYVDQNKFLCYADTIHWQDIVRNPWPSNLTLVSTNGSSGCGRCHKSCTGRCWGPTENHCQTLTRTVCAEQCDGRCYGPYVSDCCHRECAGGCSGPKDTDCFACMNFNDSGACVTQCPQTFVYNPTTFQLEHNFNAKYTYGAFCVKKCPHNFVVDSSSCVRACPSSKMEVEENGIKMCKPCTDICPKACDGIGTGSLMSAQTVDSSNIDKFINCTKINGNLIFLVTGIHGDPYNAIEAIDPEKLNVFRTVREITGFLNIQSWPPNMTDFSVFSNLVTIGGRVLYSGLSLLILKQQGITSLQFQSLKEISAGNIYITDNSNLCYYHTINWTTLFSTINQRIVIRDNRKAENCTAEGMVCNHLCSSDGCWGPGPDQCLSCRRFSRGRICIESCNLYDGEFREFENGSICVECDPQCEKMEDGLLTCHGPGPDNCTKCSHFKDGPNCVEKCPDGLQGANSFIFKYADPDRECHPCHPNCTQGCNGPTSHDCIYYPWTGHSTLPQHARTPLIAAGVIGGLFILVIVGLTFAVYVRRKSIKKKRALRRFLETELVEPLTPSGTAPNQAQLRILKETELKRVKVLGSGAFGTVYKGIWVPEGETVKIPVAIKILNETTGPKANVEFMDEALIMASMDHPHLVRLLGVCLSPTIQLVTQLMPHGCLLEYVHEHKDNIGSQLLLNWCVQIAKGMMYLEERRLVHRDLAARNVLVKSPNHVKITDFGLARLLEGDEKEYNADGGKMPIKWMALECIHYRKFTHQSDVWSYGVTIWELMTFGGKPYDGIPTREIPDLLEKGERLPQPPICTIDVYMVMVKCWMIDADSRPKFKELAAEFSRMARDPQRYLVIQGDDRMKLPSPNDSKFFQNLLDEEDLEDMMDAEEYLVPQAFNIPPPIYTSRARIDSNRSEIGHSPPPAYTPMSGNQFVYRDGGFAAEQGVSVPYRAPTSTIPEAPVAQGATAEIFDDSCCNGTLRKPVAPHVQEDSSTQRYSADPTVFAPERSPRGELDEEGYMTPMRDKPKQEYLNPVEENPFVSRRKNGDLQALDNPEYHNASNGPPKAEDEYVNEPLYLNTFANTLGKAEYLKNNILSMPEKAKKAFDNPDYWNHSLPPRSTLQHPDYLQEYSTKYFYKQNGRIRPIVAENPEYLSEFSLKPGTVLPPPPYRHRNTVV

B1: 10D1F.FcA (anti-HER3 clone 10D1_c89 IgG1) (antibody)
heavy: not shown
light: DIQMTQSPSSVSASVGDRVTITCKASQIVGSNVAWYQQKPGKAPEPLIYSASYLYSGVPSRFSGSGSGTDFTLTISSLQPEDFATYYCQQYSSHPLTFGQGTKLEIKRTVAAPSVFIFPPSDEQLKSGTASVVCLLNNFYPREAKVQWKVDNALQSGNSQESVTEQDSKDSTYSLSSTLTLSKADYEKHKVYACEVTHQGLSSPVTKSFNRGEC
notes: also called 10D1F.A; HMBD-001
As to B1, the Kd was less than 0.001 nM with human HER3 polypeptide [1]; 302 nM in the experiment with hCD16a; 1800 nM in the experiment with FcgRIIA (H167); 976 nM with FcgRIIA (R167); 986 nM in experiment [3]. Besides, the binding result (in [2]; with human EGFR; with human HER2) was “no binding” in each case. For the same molecule, in the experiment with human HER3 polypeptide [4], the EC50 was 0.0144 nM. In addition, the concentration for a half-maximal effect (EC50 (read off the curve)) with human HER3 polypeptide [5] was roughly 2 ng/mL. Besides, the “% Parent (HER3 positive)” value in experiment [6] and in experiment [7] was 73.3% in each case. In experiment [8], the IC50 turned out to be 4.78 nM.
